The data set has as its system MS2 coat protein. Put plainly: apparent KD of MS2 coat protein; designed switch direction (-1 OFF switch, 1 ON switch): -1; higher = weaker reporter binding. In short, it runs like this: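 Designed RNA switches sharing common flanks were transcribed on Illumina chips by stalled E. coli RNA polymerase. They were titrated with SNAP-549-labelled MS2 coat protein, from 0.7 or 1.5 nM doubling to 3 µM, in Tris-HCl pH 7.5 buffer with KCl, MgCl2, BSA, DTT, tRNA and Tween-20. Titrations ran without input, with 200 uM small-molecule ligand, or with an oligonucleotide input. The apparent KD of each design is the median over its clusters, after curve-fitting of normalised cluster fluorescence.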

Setting [1] is: input ligand: microRNA oligo, concentration not stated.
[2] abbreviates: Eterna round: R95, input ligand: FMN 200 uM.
Where [3] appears, read: Eterna round: R95, input ligand: microRNA oligo, concentration not stated.
Where [4] appears, read: Eterna round: R95, input ligand: none.

With “AAACGCAGAGGAUAUACAUAUUUUCCUCAUGUGCAGCUUACACAUGAGGAUCACCCAUGUAGAAGGCUGGAAAA [EX2 A.29] (Eterna round: R97, puzzle: Exclusion 2)”, the “apparent KD of MS2 coat protein” value (input ligand: FMN 200 uM) came out at 0.3 µM and the “apparent KD of MS2 coat protein” value (input ligand: none) was 0.0486 µM.
“AAACGCUGAGGAUAUAUAUAACAACAAAGCCUCACGUGCCAACAUGAGGAUCACCCAUGUAGAAGGCAGCCCAA [Mod R3 Insanara 12 - Jieux - Exclusion 2] (Eterna round: R97, puzzle: Exclusion 2)”: the “apparent KD of MS2 coat protein” value is 0.0158 µM (input ligand: FMN 200 uM) and 0.0141 µM (input ligand: none).
Regarding “AAACGGCAGGGAGGAUAUGCUUGCCUGGGUCGUCUUCAAACAUGAGGAUCACCCAUGUAGUCGACGCAGAAGGCCCUCAAAGCC [JL ViennaUCT Ontiis mod 4] (Eterna round: R96, puzzle: Exclusion NG 2)”, the “apparent KD of MS2 coat protein” value (input ligand: FMN 200 uM) is 0.0429 µM, the “apparent KD of MS2 coat protein” value under setting [1] was determined as 0.00885 µM and the “apparent KD of MS2 coat protein” value (input ligand: none) was 0.0167 µM.
For “AAACGGCAGGGAGGAUAUGCUUGCCUGGGUCGUCUUCAGACAUGAGGAUCACCCAUGUAGUCGACGCAGAAGGCCCUCAAAGCC [JL ViennaUCT Ontiis mod 5] (Eterna round: R96, puzzle: Exclusion NG 2)”, the “apparent KD of MS2 coat protein” value (input ligand: FMN 200 uM) turned out to be 0.158 µM, the “apparent KD of MS2 coat protein” value under setting [1] came to 0.0162 µM and the “apparent KD of MS2 coat protein” value (input ligand: none) was determined as 0.0181 µM.
For “AAACUGUGAGGAUAUGCACGGGCCCUCUUAAUAAAACCAAAACAUGAGGAUCACCCAUGUAGAAGGCACACAUA [EX2 A.24] (Eterna round: R97, puzzle: Exclusion 2)”, the “apparent KD of MS2 coat protein” value by setting is: (input ligand: FMN 200 uM) 0.0535 µM; (input ligand: none) 0.543 µM.
With “AAAGAACAUGAGGAUCACCCAUGUGAGGAUAUGUGAGAAUUGUGGAGAAGAAGAGAGAACAGAAGGCACUGAGG [JR_Exclu1_Sub067] (puzzle: Exclusion 1)”, the “apparent KD of MS2 coat protein” value is, setting by setting: under setting [2], 0.077 µM; under setting [3], 0.0513 µM; under setting [4], 0.0645 µM.
Turning to “AAAGAUGUAGGAUAUGUCCAUCCAGACAUGAGGAUCACCCAUGUGAGGGCCGGGUGUUGGGCAGAAGGACACCGGU [Eternabot (Original) Solution 19] (Eterna round: R97, puzzle: Exclusion 5)”, the “apparent KD of MS2 coat protein” value is, setting by setting: (input ligand: FMN 200 uM) 0.0272 µM; (input ligand: none) 0.0314 µM.
As to “AAAGGAUGCCUAGGAUAUUGACGAAGAAAGGAUUAAGAAGGAGGAAAUAUAUGAGGGAUCCACAUGAGGAUCACCCAUGUACAC [Beveinveor] (Eterna round: R96, puzzle: Exclusion NG 1)”, the “apparent KD of MS2 coat protein” value is 0.538 µM (input ligand: FMN 200 uM), 0.458 µM under setting [1] and 0.27 µM (input ligand: none).
On to “AAAGUAGGAGGAUAUGGAUAUAGUAACAUGAGGAUCACCCAUGUUCUUGGUGUUCGUUACCCAGAAGGCCUGACAC [Eternabot (L1) Solution 64] (Eterna round: R97, puzzle: Exclusion 5)”, for which the “apparent KD of MS2 coat protein” value runs as follows: (input ligand: FMN 200 uM) 0.184 µM; (input ligand: none) 0.091 µM.
As to “AAAGUCGGAGGAUAUACAAUAGAUGACAAUAAAGUUGGAGUACAUGAGGAUCACCCAUGUAGAAGGCCGAGAAA [Swimmer becomes a laser gun] (puzzle: Exclusion 2)”, the “apparent KD of MS2 coat protein” value runs as follows: under setting [2], 0.0282 µM; under setting [3], 0.0173 µM; under setting [4], 0.0206 µM.
Consider “AAAGUGGGCCAGAACAUGAGGAUCACCCAUGUCUGAAAUAGCAAGGAUAUUACGAGCAAAAGGAGUAAGAAGGUGCACAGUACG [Eternabot solution 41] (Eterna round: R96, puzzle: Exclusion NG 3)”, for which the “apparent KD of MS2 coat protein” value was 0.024 µM (input ligand: FMN 200 uM), 0.0154 µM under setting [1] and 0.0236 µM (input ligand: none).
Take “AAAUAAUAGAUAAAAUAAAACAUGAGGAUCACCCAUGUGGGAUGAUGAGGGUGAAACAAGCUUUUUGCUCGUCUUAU (puzzle: Sensor v3, turn-off variant 1)”: the “apparent KD of MS2 coat protein” value under setting [2] was found to be 0.386 µM, the “apparent KD of MS2 coat protein” value under setting [3] is 0.919 µM and the “apparent KD of MS2 coat protein” value under setting [4] was 0.439 µM.
Turning to “AAAUAAUAGAUAAAAUAAUACAUGAGGAUCACCCAUGUGGGAUGUUGAGGGUGAUACAGGCUUUUUGCUCGUCUUAU (puzzle: Sensor v3, turn-off variant 1)”, the “apparent KD of MS2 coat protein” value came to 0.434 µM under setting [2], 0.155 µM under setting [3] and 0.207 µM under setting [4].
Regarding “AAAUACAAGCAAAGAUCUUACAUGAGGAUCACCCAUGUGUUCGUCUUAUAAAGUACUAUCACGAAAGUGAUAGUACA [Sensor 3, v1 - 32] (puzzle: Sensor v3, turn-off variant 1)”, the “apparent KD of MS2 coat protein” value turned out to be 0.014 µM under setting [2], 0.0897 µM under setting [3] and 0.0154 µM under setting [4].

Source of the values: the supplement of paper PMC9170038.
